The experiment deals with 447-52D Fv fragment. The experiment in a line: fluorescence quenching of 447Fv upon titration with the peptide.

Bridge positions count the residues as written; N and C are the ends. Ends that are not written are not given here.

As to CRKSIHCGPGRCFYTTGC (disulfide 1-18, 7-12) [R5A-M1 peptide (disulfide-constrained R5A mimic peptide 1)], the Kd turned out to be 10 nM.

As a reminder, the Kd is the concentration at which binding is half-saturated.

The values above are taken from patent publication US20080206264A1.
